Reference: patent US20250154231A1
Like-named read-outs stand apart in the source and are kept apart here.

Legend:
Experiment in all cases: cell-based or functional assay
[1] = biological target: SARS-CoV-2 spike (S) protein, Omicron BA.2.75 (SARS-CoV-2) (UniProt P0DTC2)
[2] = biological target: SARS-CoV-2 spike (S) protein, Omicron BA.4.6 (SARS-CoV-2) (UniProt P0DTC2)
[3] = biological target: SARS-CoV-2 spike (S) protein, Omicron BA.4/5 (SARS-CoV-2) (UniProt P0DTC2)
[4] = biological target: SARS-CoV-2 spike (S) protein, Omicron BJ.1 (SARS-CoV-2) (UniProt P0DTC2)
[5] = biological target: SARS-CoV-2 spike (S) protein, Omicron BA.2.3.20 (SARS-CoV-2) (UniProt P0DTC2)
[6] = biological target: SARS-CoV-2 spike (S) protein, Victoria strain (SARS-CoV-2) (UniProt P0DTC2)
[7] = biological target: SARS-CoV-2 spike (S) protein, Omicron BA.2.75.2 (SARS-CoV-2) (UniProt P0DTC2)
[8] = biological target: SARS-CoV-2 spike (S) protein, Omicron BA.2 (SARS-CoV-2) (UniProt P0DTC2)
[9] = biological target: SARS-CoV-2 Omicron BA.2 spike (S) protein, pseudovirus construct (SARS-CoV-2) (UniProt P0DTC2)
[10] = biological target: SARS-CoV-2 spike (S) protein, Omicron BA.2.75 (SARS-CoV-2) (UniProt P0DTC2); remark: listed apart in the source
[11] = biological target: SARS-CoV-2 Gamma (P.1) spike (S) protein (SARS-CoV-2) (UniProt P0DTC2)
[12] = biological target: SARS-CoV-2 Gamma spike (S) protein (SARS-CoV-2) (UniProt P0DTC2)
[13] = biological target: SARS-CoV-2 spike (S) protein, Omicron BA.3 (SARS-CoV-2) (UniProt P0DTC2)
[14] = biological target: SARS-CoV-2 spike (S) protein, Omicron BA.1 (SARS-CoV-2) (UniProt P0DTC2)
[15] = biological target: SARS-CoV-2 spike (S) protein, Omicron BA.4/5 (SARS-CoV-2) (UniProt P0DTC2); remark: listed apart in the source
[16] = biological target: SARS-CoV-2 Omicron (BA.1) spike (S) protein, live virus isolate (SARS-CoV-2) (UniProt P0DTC2)
[17] = biological target: SARS-CoV-2 Victoria spike (S) protein (SARS-CoV-2) (UniProt P0DTC2)
[18] = biological target: SARS-CoV-2 Beta (B.1.351) spike (S) protein (SARS-CoV-2) (UniProt P0DTC2)
[19] = biological target: SARS-CoV-2 Omicron BA.1.1 spike (S) protein (SARS-CoV-2) (UniProt P0DTC2)
[20] = biological target: SARS-CoV-2 Omicron BA.3 spike (S) protein, pseudovirus construct (SARS-CoV-2) (UniProt P0DTC2)
[21] = biological target: SARS-CoV-2 Alpha (B.1.1.7) spike (S) protein (SARS-CoV-2) (UniProt P0DTC2)
[22] = biological target: SARS-CoV-2 Omicron BA.1 spike (S) protein of the pseudovirus (SARS-CoV-2) (UniProt P0DTC2)
[23] = biological target: SARS-CoV-2 Omicron BA.1 spike (S) protein, pseudovirus construct (SARS-CoV-2) (UniProt P0DTC2)
[24] = biological target: SARS-CoV-2 Omicron BA.1.1 spike (S) protein, pseudovirus construct (SARS-CoV-2) (UniProt P0DTC2)
[25] = biological target: SARS-CoV-2 Omicron BA.2 spike (S) protein (SARS-CoV-2) (UniProt P0DTC2)
[26] = biological target: SARS-CoV-2 spike (S) protein, Victoria strain (SARS-CoV-2) (UniProt P0DTC2); remark: listed apart in the source
[27] = biological target: SARS-CoV-2 Omicron BA.3 spike (S) protein (SARS-CoV-2) (UniProt P0DTC2)
[28] = biological target: SARS-CoV-2 Omicron BA.4/5 spike (S) protein (SARS-CoV-2) (UniProt P0DTC2)
[29] = biological target: SARS-CoV-2 Alpha spike (S) protein (SARS-CoV-2) (UniProt P0DTC2)
[30] = biological target: SARS-CoV-2 spike (S) protein, Omicron BA.2 (SARS-CoV-2) (UniProt P0DTC2); remark: listed apart in the source
[31] = biological target: SARS-CoV-2 Omicron BA.1 spike (S) protein of the live isolate (SARS-CoV-2) (UniProt P0DTC2)
[32] = biological target: SARS-CoV-2 spike (S) protein, Omicron BA.1.1 (SARS-CoV-2) (UniProt P0DTC2)
[33] = biological target: SARS-CoV-2 Delta spike (S) protein (SARS-CoV-2) (UniProt P0DTC2)
[34] = biological target: SARS-CoV-2 Beta spike (S) protein (SARS-CoV-2) (UniProt P0DTC2)
[35] = biological target: SARS-CoV-2 spike (S) protein, Omicron BA.2.75 (SARS-CoV-2) (UniProt P0DTC2); remark: listed apart in the source
[36] = biological target: SARS-CoV-2 spike (S) protein, Omicron BA.2 (SARS-CoV-2) (UniProt P0DTC2); remark: listed apart in the source
[37] = biological target: SARS-CoV-2 spike (S) protein, Omicron BA.2.75 (SARS-CoV-2) (UniProt P0DTC2); remark: listed apart in the source
[38] = biological target: SARS-CoV-2 spike (S) protein, Omicron BA.4.6 (SARS-CoV-2) (UniProt P0DTC2); remark: listed apart in the source

Omi-32 (antibody), sequence (VH): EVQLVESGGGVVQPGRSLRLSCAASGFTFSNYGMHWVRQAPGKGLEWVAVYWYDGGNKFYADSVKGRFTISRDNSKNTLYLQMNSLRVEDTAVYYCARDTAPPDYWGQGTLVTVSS
Omi-32 (antibody), sequence (VL): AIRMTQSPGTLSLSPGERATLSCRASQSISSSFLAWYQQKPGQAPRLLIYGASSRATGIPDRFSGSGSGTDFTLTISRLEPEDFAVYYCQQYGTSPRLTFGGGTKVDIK

Substance: Omi-32 (antibody)
- IC50, pseudoviral neutralization [1]: 0.354 µg/mL
- IC50, pseudoviral neutralization [2]: > 10 µg/mL
- IC50, pseudoviral neutralization [3]: 0.035 µg/mL
- IC50, pseudoviral neutralization [4]: > 10 µg/mL
- IC50, pseudoviral neutralization [5]: > 10 µg/mL
- IC50, pseudoviral neutralization [6]: 0.01 µg/mL
- IC50, pseudoviral neutralization [7]: > 10 µg/mL
- IC50, pseudoviral neutralization [8]: 2.68 µg/mL
- Pseudovirus - IC50 [9]: 2.68 µg/mL
- pseudovirus neutralisation IC50 [10]: 0.354 µg/mL
- Authentic virus-IC50 [11]: 0.43 µg/mL
- IC50, authentic virus neutralization [12]: 0.43 µg/mL
- pseudovirus neutralisation IC50 [13]: 1.02 µg/mL
- pseudovirus neutralisation IC50 [14]: 0.017 µg/mL
- pseudovirus neutralisation IC50 [15]: 0.035 µg/mL
- Authentic virus-IC50 [16]: 0.024 µg/mL
- Authentic virus-IC50 [17]: 0.032 µg/mL
- IC50, authentic virus neutralization [17]: 0.032 µg/mL
- IC50, pseudovirus neutralization [17]: 0.01 µg/mL
- Pseudovirus - IC50 [17]: 0.01 µg/mL
- Authentic virus-IC50 [18]: 0.46 µg/mL
- IC50, authentic virus neutralization [19]: 4.64 µg/mL
- IC50, pseudovirus neutralization [19]: > 10 µg/mL
- Pseudovirus - IC50 [20]: 1.02 µg/mL
- Authentic virus-IC50 [21]: 0.102 µg/mL
- IC50, pseudovirus neutralization [22]: 0.017 µg/mL
- Pseudovirus - IC50 [23]: 0.017 µg/mL
- Pseudovirus - IC50 [24]: > 10 µg/mL
- IC50, authentic virus neutralization [25]: 1.9 µg/mL
- IC50, pseudovirus neutralization [25]: 2.68 µg/mL
- pseudovirus neutralisation IC50 [26]: 0.01 µg/mL
- IC50, pseudovirus neutralization [27]: 1.02 µg/mL
- IC50, pseudovirus neutralization [28]: 0.035 µg/mL
- IC50, authentic virus neutralization [29]: 0.102 µg/mL
- pseudovirus neutralisation IC50 [30]: 2.68 µg/mL
- IC50, authentic virus neutralization [31]: 0.024 µg/mL
- pseudovirus neutralisation IC50 [32]: > 10 µg/mL
- Authentic virus-IC50 [33]: 0.012 µg/mL
- IC50, authentic virus neutralization [33]: 0.012 µg/mL
- IC50, authentic virus neutralization [34]: 0.46 µg/mL
- pseudovirus neutralisation IC50 [35]: 0.354 µg/mL
- pseudovirus neutralisation IC50 [36]: 2.61 µg/mL

Substance: REGN10933 (antibody)
- pseudovirus neutralisation IC50 [37]: > 10 µg/mL
- IC50, pseudoviral neutralization [1]: > 10 µg/mL
- IC50, pseudoviral neutralization [2]: > 10 µg/mL
- IC50, pseudoviral neutralization [3]: > 10 µg/mL
- IC50, pseudoviral neutralization [4]: > 10 µg/mL
- IC50, pseudoviral neutralization [5]: 8.62 µg/mL
- IC50, pseudoviral neutralization [6]: 0.001 µg/mL
- IC50, pseudoviral neutralization [7]: > 10 µg/mL
- IC50, pseudoviral neutralization [8]: > 10 µg/mL
- IC50, authentic virus neutralization [12]: 6.18 µg/mL
- IC50, pseudoviral neutralization [38]: > 10 µg/mL
- IC50, pseudoviral neutralization [13]: > 10 µg/mL
- pseudovirus neutralisation IC50 [13]: > 10 µg/mL
- IC50, pseudoviral neutralization [14]: > 10 µg/mL
- pseudovirus neutralisation IC50 [14]: > 10 µg/mL
- IC50, pseudoviral neutralization [15]: > 10 µg/mL
- pseudovirus neutralisation IC50 [15]: > 10 µg/mL
- IC50, authentic virus neutralization [17]: 0.004 µg/mL
- IC50, authentic virus neutralization [19]: > 10 µg/mL
- IC50, authentic virus neutralization [25]: > 10 µg/mL
- IC50, pseudoviral neutralization [26]: 0.001 µg/mL
- pseudovirus neutralisation IC50 [26]: 0.001 µg/mL
- IC50, authentic virus neutralization [29]: 0.014 µg/mL
- IC50, pseudoviral neutralization [30]: > 10 µg/mL
- pseudovirus neutralisation IC50 [30]: > 10 µg/mL
- IC50, authentic virus neutralization [31]: > 10 µg/mL
- IC50, pseudoviral neutralization [32]: > 10 µg/mL
- pseudovirus neutralisation IC50 [32]: > 10 µg/mL
- IC50, authentic virus neutralization [33]: 0.003 µg/mL
- IC50, authentic virus neutralization [34]: 3.28 µg/mL
